Measured values reported in patent publication US20100311696A1, “TOPICAL SKIN TREATMENT COMPOSITION” (priority 2002, published 2010).

Experiments:
[1] = Skin penetration after topical application of the somatotropin composition; format: in vivo; settings: composition topically applied
Protocol: (§1) A drug delivery composition formulated with somatotropin was formulated in one trial with 85% phosphatidylcholine to which lipoic acid and ascorbyl palmitate were added.

[2] = Dispersion and stability of somatotropin in phosphatidylcholine; format: physicochemical; settings: 85% phosphatidylcholine with lipoic acid and ascorbyl palmitate
Protocol: as §1

[3] = RP-HPLC and HPCE stability analyses of insulin standards and stable insulin compositions, Example 2; format: physicochemical; settings: stored at room temperature
[4] = RP-HPLC and HPCE stability analyses of insulin standards and insulin compositions, Example 1; format: physicochemical; settings: stored at room temperature
Protocol: This mixture was then divided in half, half of which was stored at 4° C., and the other half stored at room temperature.

Substance | skin penetration [1] | dispersion in phosphatidylcholine [2] | stability in phosphatidylcholine [2] | time at which denaturing started (RP-HPLC and HPCE) [3] [week] | time at which denaturing started (RP-HPLC and HPCE) [4] [days]
Somatotropin: Somatotropin (pituitary growth hormone) formulated with 85% phosphatidylcholine, lipoic acid and ascorbyl palmitate | penetrate the skin well | readily dispersed | remained stable | – | –
insulin standards: Insulin in 0.01 N HCl: 1 mg/ml Sigma insulin (Example 1), 5 mg/ml (Example 2) | – | – | – | ≤ 1 | ≤ 7
